Read-outs that look alike come from different tables or passages of the source.
Experiments:
[1] = molecular target: integrin α4β1 on Jurkat cells (UniProt P13612); assay: inhibition of cell adhesion: Jurkat cells to CS-1
[2] = molecular target: integrin α6β1 on K562 cells transfected with α6 (UniProt P23229); assay: inhibition of cell adhesion: K562 (α6+) cells to laminin
[3] = molecular target: integrin α4β1 on Jurkat cells (UniProt P13612); assay: inhibition of cell adhesion: Jurkat cells to immobilized VCAM-1
integrin αIIbβ3 (human) [4] = molecular target: integrin αIIbβ3 (human) (UniProt P08514); assay: inhibition of cell adhesion: A5 (CHO αIIbβ3+) cells to immobilized fibrinogen
integrin α4β7 [5] = molecular target: integrin α4β7 (UniProt P13612); assay: inhibition of cell adhesion: RPMI 8866 cells to MadCAM-1
integrin αIIbβ3 (human) [6] = molecular target: integrin αIIbβ3 (human) (UniProt P08514); assay: cell-based or functional assay
[7] = molecular target: integrin α4β1 on Jurkat cells (UniProt P13612)
integrin α4β7 [8] = molecular target: integrin α4β7 (UniProt P13612)
integrin αvβ3 (human) = integrin αvβ3 (human) (UniProt P06756); assay: inhibition of cell adhesion: VNRC3 (CHO αvβ3+) cells to immobilized vitronectin
Chain of integrin αvβ3 (human) (P06756 31-1048, chain 1 of 2): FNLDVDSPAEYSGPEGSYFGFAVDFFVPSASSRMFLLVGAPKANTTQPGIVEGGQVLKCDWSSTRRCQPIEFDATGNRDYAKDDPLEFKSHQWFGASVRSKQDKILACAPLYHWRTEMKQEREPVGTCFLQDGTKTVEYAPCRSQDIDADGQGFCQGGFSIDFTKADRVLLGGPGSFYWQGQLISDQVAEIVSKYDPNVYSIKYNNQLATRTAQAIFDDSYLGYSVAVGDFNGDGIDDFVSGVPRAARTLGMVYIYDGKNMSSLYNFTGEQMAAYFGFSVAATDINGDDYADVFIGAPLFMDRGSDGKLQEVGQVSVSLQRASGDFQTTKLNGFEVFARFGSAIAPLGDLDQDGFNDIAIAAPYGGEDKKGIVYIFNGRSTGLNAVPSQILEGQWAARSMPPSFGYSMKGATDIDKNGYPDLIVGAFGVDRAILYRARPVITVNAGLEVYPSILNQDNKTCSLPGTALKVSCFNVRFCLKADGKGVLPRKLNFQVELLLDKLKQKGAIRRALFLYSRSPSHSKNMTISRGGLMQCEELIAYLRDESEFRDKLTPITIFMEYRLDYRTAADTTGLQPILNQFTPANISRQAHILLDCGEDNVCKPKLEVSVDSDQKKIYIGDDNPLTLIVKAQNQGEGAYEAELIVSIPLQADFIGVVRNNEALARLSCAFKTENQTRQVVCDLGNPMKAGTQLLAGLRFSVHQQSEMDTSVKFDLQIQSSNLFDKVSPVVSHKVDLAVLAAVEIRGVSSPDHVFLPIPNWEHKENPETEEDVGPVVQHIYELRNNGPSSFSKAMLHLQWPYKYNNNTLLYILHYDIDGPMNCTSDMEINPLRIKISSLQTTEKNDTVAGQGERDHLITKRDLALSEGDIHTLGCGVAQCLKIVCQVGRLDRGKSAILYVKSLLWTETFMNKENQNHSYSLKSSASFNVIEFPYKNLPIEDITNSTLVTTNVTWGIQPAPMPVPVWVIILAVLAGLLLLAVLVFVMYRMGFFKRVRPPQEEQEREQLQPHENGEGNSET
Chain of integrin αvβ3 (human) (P05106 27-788, chain 2 of 2, further chain): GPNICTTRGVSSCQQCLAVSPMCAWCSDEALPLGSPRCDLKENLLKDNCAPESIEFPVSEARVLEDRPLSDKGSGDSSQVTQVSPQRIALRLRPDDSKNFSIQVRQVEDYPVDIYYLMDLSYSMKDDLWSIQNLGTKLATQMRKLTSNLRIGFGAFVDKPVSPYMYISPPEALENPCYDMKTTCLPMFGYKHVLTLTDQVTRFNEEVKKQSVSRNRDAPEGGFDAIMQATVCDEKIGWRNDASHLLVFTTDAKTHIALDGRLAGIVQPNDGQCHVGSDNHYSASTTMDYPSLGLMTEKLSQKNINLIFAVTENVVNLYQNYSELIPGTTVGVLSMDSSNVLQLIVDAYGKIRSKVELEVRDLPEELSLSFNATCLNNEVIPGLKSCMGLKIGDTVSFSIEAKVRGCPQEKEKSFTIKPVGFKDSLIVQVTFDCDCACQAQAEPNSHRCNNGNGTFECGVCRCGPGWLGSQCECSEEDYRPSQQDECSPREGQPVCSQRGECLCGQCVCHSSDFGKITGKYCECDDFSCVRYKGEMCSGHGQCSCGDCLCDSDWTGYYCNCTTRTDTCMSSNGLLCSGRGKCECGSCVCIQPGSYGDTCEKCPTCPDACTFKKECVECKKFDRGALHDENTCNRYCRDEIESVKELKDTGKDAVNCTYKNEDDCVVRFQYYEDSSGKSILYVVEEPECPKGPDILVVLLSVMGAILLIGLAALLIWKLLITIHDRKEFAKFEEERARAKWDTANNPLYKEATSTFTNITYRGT

Chain of integrin α6β1 on K562 cells transfected with α6 (P23229 24-1130, chain 1 of 2): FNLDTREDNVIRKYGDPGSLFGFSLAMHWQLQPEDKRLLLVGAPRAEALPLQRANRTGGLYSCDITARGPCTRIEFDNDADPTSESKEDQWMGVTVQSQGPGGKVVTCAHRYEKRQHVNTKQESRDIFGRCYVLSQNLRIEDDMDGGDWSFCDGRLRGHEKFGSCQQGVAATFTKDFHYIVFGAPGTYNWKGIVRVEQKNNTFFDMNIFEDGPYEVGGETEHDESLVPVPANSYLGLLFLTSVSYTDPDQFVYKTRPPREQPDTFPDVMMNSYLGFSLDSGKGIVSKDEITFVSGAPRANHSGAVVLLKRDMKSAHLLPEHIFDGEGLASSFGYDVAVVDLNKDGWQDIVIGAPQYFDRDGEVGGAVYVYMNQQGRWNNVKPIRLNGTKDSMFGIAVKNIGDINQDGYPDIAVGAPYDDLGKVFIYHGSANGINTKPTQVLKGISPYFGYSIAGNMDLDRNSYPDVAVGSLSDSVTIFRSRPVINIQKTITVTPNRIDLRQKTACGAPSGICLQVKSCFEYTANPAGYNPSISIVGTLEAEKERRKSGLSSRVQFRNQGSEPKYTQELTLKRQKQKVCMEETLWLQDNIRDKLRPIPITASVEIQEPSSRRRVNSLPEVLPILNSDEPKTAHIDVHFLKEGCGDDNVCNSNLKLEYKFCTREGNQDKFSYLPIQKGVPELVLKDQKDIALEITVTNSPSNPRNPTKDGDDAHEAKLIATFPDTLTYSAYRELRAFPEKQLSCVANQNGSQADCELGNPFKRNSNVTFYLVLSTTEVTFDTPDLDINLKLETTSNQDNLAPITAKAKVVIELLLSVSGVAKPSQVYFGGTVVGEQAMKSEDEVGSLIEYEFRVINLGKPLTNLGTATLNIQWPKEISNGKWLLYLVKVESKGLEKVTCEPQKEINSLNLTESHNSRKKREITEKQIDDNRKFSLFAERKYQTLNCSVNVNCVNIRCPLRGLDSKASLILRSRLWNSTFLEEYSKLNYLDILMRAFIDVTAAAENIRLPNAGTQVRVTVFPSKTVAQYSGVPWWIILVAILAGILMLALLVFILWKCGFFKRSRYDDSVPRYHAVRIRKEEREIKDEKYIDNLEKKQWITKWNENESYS
Chain of integrin α6β1 on K562 cells transfected with α6 (P05556 21-798, chain 2 of 2, further chain): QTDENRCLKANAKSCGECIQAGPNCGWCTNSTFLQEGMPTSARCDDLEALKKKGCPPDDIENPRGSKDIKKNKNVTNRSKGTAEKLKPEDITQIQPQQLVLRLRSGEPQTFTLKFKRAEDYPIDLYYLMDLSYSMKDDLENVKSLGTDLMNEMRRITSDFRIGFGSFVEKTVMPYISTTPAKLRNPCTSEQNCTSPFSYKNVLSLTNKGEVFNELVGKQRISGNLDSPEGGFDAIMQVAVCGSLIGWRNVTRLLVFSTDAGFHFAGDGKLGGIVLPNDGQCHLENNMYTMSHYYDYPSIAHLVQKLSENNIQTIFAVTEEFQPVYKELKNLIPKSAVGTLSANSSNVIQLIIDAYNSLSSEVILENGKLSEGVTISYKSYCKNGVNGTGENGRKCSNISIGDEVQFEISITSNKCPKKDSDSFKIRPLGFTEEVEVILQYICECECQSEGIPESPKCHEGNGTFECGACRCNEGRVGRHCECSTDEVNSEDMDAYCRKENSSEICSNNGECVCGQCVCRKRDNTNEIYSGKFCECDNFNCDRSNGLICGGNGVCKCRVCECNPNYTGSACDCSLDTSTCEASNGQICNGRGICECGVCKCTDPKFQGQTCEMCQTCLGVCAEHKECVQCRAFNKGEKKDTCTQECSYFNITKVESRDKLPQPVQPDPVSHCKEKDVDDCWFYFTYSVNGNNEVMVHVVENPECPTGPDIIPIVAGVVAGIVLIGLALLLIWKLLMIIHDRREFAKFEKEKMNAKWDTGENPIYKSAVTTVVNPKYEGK

Substance | IC50 [1] | IC50 [2] | IC50 [3] | IC50 (integrin αIIbβ3 (human) [4]) | IC50 (integrin α4β7 [5]) | IC50, ADP PA (ADP-induced platelet aggregation in platelet rich plasma) (integrin αIIbβ3 (human) [6]) | IC50 [7] | IC50 (integrin α4β7 [8]) | IC50 (integrin αvβ3 (human))
EC-3 protein, heterodimeric disintegrin from Echis carinatus suchoreki venom (from UniProt P81630 1-67; P81631 1-67) | 100 nM | > 10000 nM | 25 nM | 500 nM | 5 nM | 1000 nM | 28 nM | 6 nM | > 10000 nM
Echistatin (from UniProt P0C6R5 4-52) | – | > 10000 nM | > 10000 nM | 50 nM | > 10000 nM | 130 nM | – | – | 50 nM

Source: patent publication US6818617
